Test results as given in article PMC7098639.

Tests used:
Experiment in all cases: FRET or BRET; biosensor lysate at three concentrations (200,000, 400,000 and 800,000 RLU) incubated with VEGF ranges adjusted for each biosensor; Delta eBRET2 ratio against the biosensor without VEGF
[1] = target: eBRET2 VEGF biosensor Re07 (Rluc8 - VEGF receptor 2 domains 2 and 3 - GFP2) (human)
[2] = target: eBRET2 VEGF biosensor Re09 (Rluc8 - VEGF receptor 1 domain 2 - VEGF receptor 2 domain 3 - GFP2) (human)
[3] = target: eBRET2 VEGF biosensor Re02 (Rluc8 - VEGF receptor 1 domain 3 - GFP2) (human)
Sequence of eBRET2 VEGF biosensor Re02 (Rluc8 - VEGF receptor 1 domain 3 - GFP2) (human) (P17948 27-758): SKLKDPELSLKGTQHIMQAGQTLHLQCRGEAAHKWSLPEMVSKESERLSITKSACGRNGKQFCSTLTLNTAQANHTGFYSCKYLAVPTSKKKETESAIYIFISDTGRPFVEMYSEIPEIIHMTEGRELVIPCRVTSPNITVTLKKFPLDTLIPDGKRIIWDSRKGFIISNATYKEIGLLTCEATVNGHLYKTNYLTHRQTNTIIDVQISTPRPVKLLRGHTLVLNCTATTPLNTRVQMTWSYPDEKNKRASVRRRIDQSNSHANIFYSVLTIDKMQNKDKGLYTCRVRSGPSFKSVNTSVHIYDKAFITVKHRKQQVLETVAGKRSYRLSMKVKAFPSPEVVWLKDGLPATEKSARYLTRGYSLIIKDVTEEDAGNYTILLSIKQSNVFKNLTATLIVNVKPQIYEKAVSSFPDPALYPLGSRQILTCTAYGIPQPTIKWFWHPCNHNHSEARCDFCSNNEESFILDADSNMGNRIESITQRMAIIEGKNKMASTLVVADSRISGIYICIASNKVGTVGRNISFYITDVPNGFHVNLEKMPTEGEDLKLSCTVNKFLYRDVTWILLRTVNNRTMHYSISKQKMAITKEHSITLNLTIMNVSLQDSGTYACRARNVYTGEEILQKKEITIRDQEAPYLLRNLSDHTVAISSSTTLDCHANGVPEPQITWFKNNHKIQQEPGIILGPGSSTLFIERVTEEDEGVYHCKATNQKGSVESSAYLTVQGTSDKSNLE

[4] = target: eBRET2 VEGF biosensor Re06 (Rluc8 - VEGF receptor 2 domain 3 - GFP2) (human)
Sequence of eBRET2 VEGF biosensor Re06 (Rluc8 - VEGF receptor 2 domain 3 - GFP2) (human) (P35968 20-764): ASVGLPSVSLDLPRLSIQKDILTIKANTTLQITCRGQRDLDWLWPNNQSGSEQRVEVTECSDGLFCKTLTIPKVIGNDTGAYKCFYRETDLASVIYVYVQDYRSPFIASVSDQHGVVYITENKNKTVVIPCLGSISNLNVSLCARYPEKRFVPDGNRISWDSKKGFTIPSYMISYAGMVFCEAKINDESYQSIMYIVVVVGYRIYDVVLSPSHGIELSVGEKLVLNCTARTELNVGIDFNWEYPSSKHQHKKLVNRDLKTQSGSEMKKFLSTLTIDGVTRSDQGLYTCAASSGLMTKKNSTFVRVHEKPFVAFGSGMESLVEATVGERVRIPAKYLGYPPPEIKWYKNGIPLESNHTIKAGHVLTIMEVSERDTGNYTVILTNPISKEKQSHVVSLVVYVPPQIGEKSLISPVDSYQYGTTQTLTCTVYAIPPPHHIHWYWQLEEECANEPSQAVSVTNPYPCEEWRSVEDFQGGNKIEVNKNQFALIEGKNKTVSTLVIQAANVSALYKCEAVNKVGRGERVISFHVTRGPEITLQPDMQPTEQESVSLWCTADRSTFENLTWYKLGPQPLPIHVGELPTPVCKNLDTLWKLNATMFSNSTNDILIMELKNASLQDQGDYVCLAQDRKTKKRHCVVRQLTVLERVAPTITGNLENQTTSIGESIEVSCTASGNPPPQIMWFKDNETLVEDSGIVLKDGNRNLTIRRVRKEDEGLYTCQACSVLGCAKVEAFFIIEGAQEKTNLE

Sequence of eBRET2 VEGF biosensor Re07 (Rluc8 - VEGF receptor 2 domains 2 and 3 - GFP2) (human) (P35968 20-764): as above

maximum Delta eBRET2 ratio (ΔBR) at 4 ng/ml VEGF, biosensor at 400,000 RLU [1]: 27.7 mBU | maximum Delta eBRET2 ratio (ΔBR) at 1 μg/ml VEGF, biosensor at 200,000 RLU [2]: 62.6 mBU | maximum Delta eBRET2 ratio (ΔBR) at 1 μg/ml VEGF, biosensor at 800,000 RLU [2]: 100 mBU | Delta eBRET2 ratio (ΔBR) at 0.1 ng/ml VEGF, biosensor at 200,000 RLU [3]: 2.95 mBU | Delta eBRET2 ratio (ΔBR) at 100 ng/ml VEGF, biosensor at 200,000 RLU [3]: 42.5 mBU | Delta eBRET2 ratio (ΔBR) at 1000 pg/ml VEGF, biosensor at 200,000 RLU [4]: 41 mBU | maximum Delta eBRET2 ratio (ΔBR) at 1000 pg/ml VEGF, biosensor at 400,000 RLU [4]: 106 mBU
Substance: recombinant human VEGF (Active Max VEGF-A165) (ligand)
